Laboratory results published in US6117653.

Key:
Assay in all cases: ELISA of pooled CsCl fractions 9-15 of the purified particle
[1] = molecular target: purified HBs antigen particle produced from an HBV sequence construct including the pre-S2 region with none of the pre-S1 region and deletions upstream of the S ATG and the S region with deletion of the S ATG (e.g., the construct of FIG. 7B) (Hepatitis B virus (subtype not stated for the construct); Hepatitis B virus (subtype not stated))
[2] = molecular target: purified HBs antigen particle produced from an HBV sequence construct including the pre-S2 region with none of the pre-S1 region and deletions upstream of the S ATG and downstream of the S ATG through the XBaI site, and the S region with deletion of the S ATG (e.g. the construct of FIG. 2A) (Hepatitis B virus (subtype not stated for the construct); Hepatitis B virus (subtype not stated))
[3] = molecular target: purified HBs antigen particles produced by construct including the entire pre-S1-pre-S2-S region under control of the LTR region of rous sarcoma virus, with additional cotransfection with S (FIG. 13) (Hepatitis B virus (subtype not stated))
[4] = molecular target: purified HBs antigen particle produced from an HBV sequence construct including the pre-S1 region with total deletion of pre-S2 and deletions upstream of the pre-S2 ATG and the S region with deletion of the S ATG and downstream the S ATG through the XBaI site (e.g. the construct of FIG. 1A) (Hepatitis B virus (subtype not stated for the construct); Hepatitis B virus (subtype not stated))
[5] = molecular target: purified HBs antigen particle produced from an HBV sequence construct including the pre-S1 region with total deletion of pre-S2 and deletions upstream of the pre-S2 ATG and the S region with deletion of the S ATG (e.g., the construct of FIG. 6B) (Hepatitis B virus (subtype not stated for the construct); Hepatitis B virus (subtype not stated))

Q: With anti-pre-S1 monoclonal antibody MA 18/7 as the substance, how does the E492 [1] read?
A: Its E492 is 0.

Q: And the E492 [2]?
A: Its E492 is 0.

Q: What about the E492 [3] of the same substance?
A: The E492 was 0.125.

Q: What about the E492 [4] of the same substance?
A: Its E492 is 0.839.

Q: What about the E492 [5] of the same substance?
A: Its E492 is 1.27.
